Test system: expanded human T cells from three healthy donors
Assay: T cell adjuvant high throughput screen, total viable CD3+ cell count
Format: cell-based
Conditions: 62.5 IU/ml-1000 IU/ml; 6 days
Experimental: Cells were expanded from PBMC derived from Ficoll gradient separation from three healthy donor's apheresis material. […] Cells were next seeded into gas permeable 100M culture vessels and expanded for 7-14 days to achieve a large bank of T cells, and cryopreserved. […] Half of wells were additionally supplemented with 50 ng/mL OKT3, a human anti-CD3 monoclonal antibody. In total, 15 test adjuvant agents were tested for their impact on cell viability in the presence and absence of anti-CD3 activation (see Table E3). Cells were cultured for 6 days total, including a 50% medium exchange on culture day 3, and monitored for total viable CD3+ cell count.
Total viable CD3+ cell count for cells grown in the absence and presence of OKT3 stimulation are shown in FIGS. 27A-C and FIGS. 28A-C, respectively. The results shown are for the following concentrations of adjuvant: 10 μg/mL for tested antibodies (Tavolixizumab, Oxelumab, Ipilimumab, Tocilizumab, Urelumab, Pembrolizumab, Varlilumab, anti-GITR MK-1248, anto-human FasL); 25 μM for Z-VAD-FMK pan-caspase inhibitor; 250 nM for HSP inhibitor NVP-HSP990; and 1000 IU/mL for cytokine (IL-7, IL-15 or IL-21).

B1: IL-7: recombinant cytokine tested as T cell adjuvant (protein, UniProt P13232 26-177, looked up)
Interleukin-7: DCDIEGKDGKQYESVLMVSIDQLLDSMKEIGSNCLNNEFNFFKRHICDANKEGMFLFRAARKLRQFLKMNSTGDFDLHLLKVSEGTTILLNCTGQVKGRKPAALGEAQPTKSLEENKSLKEQKKLNDLCFLKRLLQEIKTCWNKILMGTKEH
  dose response, cell number: cell number increased with increasing concentration

Reference: patent US20220177841A1, “EX VIVO METHODS FOR PRODUCING A T CELL THERAPEUTIC AND RELATED COMPOSITIONS AND METHODS” (Myst Therapeutics LLC, priority 2019, published 2022)
